According to PMC12578283 (Protein & Cell, 2025):

B1: 1G9 (antibody, V domains shown)
VH: QVQLQQPGPELVRPGASVKLSCKASGYTFTTYWMKWVRQRPGQGLEWIGTIDPSDNEIHYNQIFKDKATLTVDKSSSTAYMHLSSLTSEDAAVYYCARWDGTSYYAMDYWGQGTSVTVSS
VL: DVVMSQTPLSLPVSLGDQASISCRSSQSLVHSNGNTYLHWYLQKPGQSPKLLIYKVSNRFSGVPDRFSGSGSGTDFTLKISRVEAEDLGVYFCSQSTHVPPTFGGGTKLEIK
B2: 4C7 (antibody, V domains shown)
VH: QVQLHQPGSVLVRPGTSVKLSCKASGYTFTSSWMNWAKQRPGQGLEWIGEIHPRSGNTNYNENFKGKATLTVDTSSSTAYVDLSSLASEDSAVYYCARSGGTYYYAMDSWGQGTSVTVSS
VL: DIQMTQTTSSLSASLGDRVTISCRASQDISNYLNWYQQKPDGTVKLLIYYTSRLHSGVPSRFSGSGSGTDFSLTISTLEQEDFATYFCQQANTSPYTFGGGTKLEIN

Target: p15 protein of African swine fever virus (African swine fever virus, UniProt Q65179)

Binder	binding result
B1	binds
B2	binds
